The DeepSol protein solubility set

Assay: soluble on expression in E. coli; label from the status in PepcDB or PDB records

Sequence | soluble on expression in E. coli
MGSDKIHHHHHHMLTLANVALLSQLALQQPGETDKKPEDCSFEQIEFTINFAVGRLNHCEKTGDNQYKLFLEPEREKINPSPWYAFAVKNKTETSQTIDITLVASEGVSRYKPKRSEGDDIWHAIPFSEGDGTLQFELTLSGQTKEYIAGQEIIDNVHYIEWLSSLIKEPQQTEVISLGVSSEGRNLAALEHRVESSDKWIILIGRQHPPEVTGALALLHFGELLFSDEPYVVKFRQKYNILLVPNMNPDGVYHGNWRLTAAGIDMNRDWKNLTLPETQAMANYLKKLVKDGGKIEFAIDFHSTRKNVFYTMPEDYEPRSGVPLRNPQRVYNWIEEIEELVGSVELDYQPGAHPESGVFKQFIADEFAAHAVTYEVSDNEERNNIKKVAEAALISLINRLD | not soluble
MAHHHHHHMQLKERLQQWRERGLQGADVDPPVQRPRSFRPSCIVPRLYLGAAKDVQDVRTLRSRLLPDKLLMVVSTCDPSDPPRMELRQIAPTKGTAYTVKRLAVCSWEELEKRVVTSSFCCRLPRNEVMVATAEWLKEVLKTKSLPPVSLEECRDVQKGETDGKVSEVFEEGLYLKLCLPWKDESNFTVRPYFAVATALIHATMDGIQGAVVCYCMAGKSRSATLTCALLLYCCYDNVGRPKDEEECSAYKAVQAVVEFVREVRLCVSPNEGFIEQLRDYASDLLAV | not soluble
MGSDKIHHHHHHMNTLLKQLKPYPFARLHEAMQGISAPEGMEAVPLHIGEPKHPTPKVITDALTASLHELEKYPLTAGLPELRQACANWLKRRYDGLTVDADNEILPVLGSREALFSFVQTVLNPVSDGIKPAIVSPNPFYQIYEGATLLGGGEIHFANCPAPSFNPDWRSISEEVWKRTKLVFVCSPNNPSGSVLDLDGWKEVFDLQDKYGFIIASDECYSEIYFDGNKPLGCLQAAAQLGRSRQKLLMFTSLSKRSNVPGLRSGFVAGDAELLKNFLLYRTYHGSAMSIPVQRASIAAWDDEQHVIDNRRLYQEKFERVIPILQQVFDVKLPDASFYIWLKVPDGDDLAFARNLWQKAAIQVLPGRFLARDTEQGNPGEGYVRIALVADVATCVKAAEDIVSLYR | not soluble
MPQVAKTYESLAREAADNNLDYEEYLLCVLEQEVHQRENNRIQRGIRQAGFPVIKTIESFDFLAIPSLNKPRVLKLMQGEYIRRRENVILIGNSGVGKTHIATALGYEACRQGMKVKFYTAAGLINELLAAQQEYRLNKLEKQWLAPHLVILDELGYVPFSKIGAELLFQFCSSRYERGSLIITTNLEFPRWTEVLGDEQMTAALLDRLTHNAHILNINGESYRFKQALSKQANND | soluble
MQQDVSREHTINNGSSMADHDEHPIEQKEFYMLIGLDIGGTKIEICVLDKQGSMLYRQRIATPDNYSQFVDCVCSLIVDAEQATQPVDSIGIGLPGAVSPVTGLIKNANCTFLNGQDLSSDLQYRLGREVKLANDANCFALSEAIDGAGKESMVVFGAILGTGCGGSIVVNRQVLVGPNAICGEWGHNPLPGYHLEQDGAARYCYCGRQNCIERFISGSGFQDSYQALTGECITASEIMKRYKQQEPEAIHCYTQLIDHMARSFAGLVNVLDPDIIVLGGGLSNIDELYRDLPTATARHVFSDSAQVHFAKAVFGDSSGIRGAAWL | not soluble
MWRRYPQVEEKLGWYSRVMRGEEPPKYRIVRTFEVGFDSEDDIRRALTEELWREHERVAGEFRRLFRSLREGGSYEGDIKDARPSLMDVKVELVRRLASPCELCERRCRVERAKSRRGACRLAWEVYVHSAFLHLGEEAPLVPSGTIFYGGCNFTCVFCQNWDVSQWKARDAHIVTPRRLGEIQDRLAEAGARNINHVGGDPVPSLHVIVESMKYASHLKPQLWNSNMYMTLEALDILVDLIDIWLPDLKFGNDRCAMRLSAVPRYWEVTTRNILLAAEHGDMIIRHLVMPGHVECCTKPVLRWIAENLGDRVLVNIMDQYHPDNLVLRMPHKWPEIARRPSRREIEEAWRYAEQLGLDWEPVTK | not soluble
MSEVKKTKVHLISGFLGTGKTTALKSLMAQKDPNEKWVIIVNEFGEIGIDGAVLSDNGIPVAEIAGGCLCCTAGPQMGVTVQKMLRDAKPDRLMIEASGLAHAASVIDELKAKPLDSLLEIGAVFTVVDPRQFINPDYAQQALYKDQIGICDVLAASKTDLCTPEQLAEFHDKAAKLFPPKAKVVEVQNAQLDIQWLDIPVVEKSRYRLKALPDNTMGFQSQGFTFPAGRDFNGEKLTNFFNDLPKMTEGLVRAKGVFQVLGTWVWLNWVDGQWGANQVSWRRDSRFELIAKSFDADLIEQKLKDALELEHHHHHH | soluble
MGSDKIHHHHHHMNSGPVSVACAQGSHGGDVVRLAARLGISPTDILDFSSNANSLCDDLTRQVLAQTGYAHSHYPDSECTGLRHRIAGFEETQPERILAGNGSSELIYLAMHSLKPRRVLLIAPVFSEYVRACQACGADYRLFETDPYDGFDIPERHICRLHDAVTAYRPDMAVICAPSNPACTDYSRMDDILYALDCPHVLVDNSYLDFLWGTPAYSRHGMAAYAGCTRTETKVISLRSMTKFFYCTGVRLGYCHADEQTIERMNRCKTPWSVWHAAQQAGMAFLDRMDEYRLRLPAMRAEKTAFAGALRNTGIFDNNLVLEGANFVTARLQRPAKAATVYTELLQHGILVRLCDNIPGMPQGFIRMQVREKKAWSRLTAILGTLDAE | not soluble
ANCAVCDSPGDLLDQFFCTTCGQHYHGMCLDIAVTPLKRAGWQCPECKVCQNCKQSGEDSKMLVCDTCDKGYHTFCLQPVMKSVPTNGWKCKNCRICI | soluble
MAISIKGVNTGVIRKSNNFIALALKIKEPRNKESLFFMSVMELRDLLIALESRLHQKHKLDAAAHLQYEQARDKVIKKMAENIPEILVDELKNADINRRVNTLELTDNQGENLTFVLTLHDGSKCELVVNELQIEMLARAIIHAINNAEMRELALRITSLLDFLPLYDVDCQDNGNLEYDTYSQPEWKHNLFDHYLAVLYRFKDESGKEQFSGAVVKTREATPGKEIEAITRRMLDFSPRLKKLAGVPCQVYVRTVAANNAQPLTQDQCLRALHHLRVQSTSKTAPQAK | not soluble
MGTVEKSSNNDASVTDDIRSAEYYHGMVPRQDAEGFLKREGDFLVRKTEQMPGKVVLAMSVRVTDELCRHFMLNMDPTSNKFYFEHTHQESTISELINWHMTTKTPISAASGAKIRRPMERSPWLINHDSIVANKKLGEGAFGDVFIAELDQGGKQEVAVKTMRAEATREARLRFMKEARLMRKYQHKHVVKLIGVAIHEHPLMIVMEYCPNGSLLSHLKKNKVSLIEKLRFTTEAADGIAYLERSKCIHRDIAARNCLLSAKNELKISDFGMSDNKDEIKDETLEKVPIKWLAPETMQEKVYTHKTDIWTFGVLVWEIYSDGAEPYPGLTKIQTRAKIVVNDYRMKMPDGTHPTVADVVTGTCWQKNPEKRSTMDSIHKKLREFYESKK | not soluble
MAHHHHHHMSISGAAAPAPLRGRESGGNVPGSMGALIKKLHPLYTQRVRPLEEMYSFDVFRPSWYEETILNERPFITLFGPWSAGKTTFINYLLQSNDLWTGPQPTTAEFTVVMYGKEPGPVAGQALANSKHLPFKGLLDFGESFIRNLKGFQAPHALLERVTLIDTPGVLESAKDIHQRKYDYVNVCRWFAERSDLIFVFFDPSKLDAGGELRQLFQTSFKGFENRLRLVLNKADTISTQELMRVYGSLFWNLSNFINTTEPPRVYVGSFWDKPYSPNSFSRLFAEEKLDLLHELLEVIPQQARDKKVASLIRRAKEVLVHAVILGGIRADLPLLFGKSKAKKKAAEQLPRRYELIGARYKMNHRDFPPVQAYRSFLERFDVAKFPPLQKAEKAGLIRGIQELIDTILPSMLRPVCNTRAANPFEEDKQTGLLSMYRDHVLLQRDGRPGMQGGTDKVASTMGQGVPDSATTGPSSSVAAAPASGPSSLLGPGPAVTALSASPPFIELPSRAMAASSTAVAASSPPPPPPSSAAATSSPADMQAMMAIMQQMVAYQQQQQQQQDRQSSSAPATVNSHGTLSSSSSETSGCLAESSVPVTPQESNLNSEPQPPTVVPQLGLPNSCATQISAWAGGDESKSQH | soluble
MSLAQWNKQDSIRLQELLNGDGELKINTEAVKSIHFDFQSDKDNIKGTPIMSEDKPWMKFLKDLPKNFGDTTKWVRPNFVRLTPYTPYTTWHEDPVNDPIFLKRKDSLTISWKLNIKLIPGLRNGYVILPAGMDQTVTPSNNPLIGGLDADKFLYESLTKRGRAIRRNRNRAKGWKIYQSYVPTRQDSILFPRISKVSEQDSLPKQDTLLIKKDSAIINQNSLLLKDKINGKDQTEGHHHHHH | soluble
DDNERLSKVEKARQLREQVNDLFSRKFGEAIGMGFPVKVPYRKITINPGCVVVDGMPPGVSFKAPSYLEISSMRRILDSAEFIKFTVIRPFPGLVINNQLV | soluble
